We go through 83 variants from the supplement of paper PMC7125110.

± gives the standard error. Variants at the floor of the assay were thinned out.

B1: glmS ribozyme (parent)
chain: AUAAAAGCGCCAGAACUACAGAAAUGUAGUUGACGAGGAGGAGGUUUAUCGAAUUUUCGGCGGAUGCCUCCAAA

Variants of B1 are the subject of one series. Briefly: self-cleavage kobs at 2500 uM GlcN6P; higher = faster cleavage; RNA array. To be noted: with glucosamine-6-phosphate. Summed up: (§1)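 E. coli RNA polymerase transcribed barcoded ribozyme variants in situ on sequenced MiSeq chips, which were tracked via a hybridised Cy3 probe at 37 °C. Tiles were imaged over ~14 h after glucosamine-6-phosphate (40 μM to 10 mM) in HEPES/KCl/Mg(OAc)2 buffer was flowed in. Normalised per-tile medians were fit to one- or two-exponential decays for kobs, and kcat and KM came from weighted Michaelis–Menten fits.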
For G9A C16G U69A, the “self-cleavage kobs at 2500 uM GlcN6P” value was under 1e-05 s⁻¹.

For the variant A6U U31G G41U, the “self-cleavage kobs at 2500 uM GlcN6P” value was under 1e-05 s⁻¹.

As to C16G U30C C34G U55C C61U C67U, the “self-cleavage kobs at 2500 uM GlcN6P” value was under 1e-05 s⁻¹.

G13U U49C C50A G59A C70G: the “self-cleavage kobs at 2500 uM GlcN6P” value was found to be 3.99e-05 ± 2e-05 s⁻¹. As for G29A U57G C70G, the “self-cleavage kobs at 2500 uM GlcN6P” value was 0.000123 ± 5e-05 s⁻¹. Turning to A36C A39U G40C A42G U46C U69G, the “self-cleavage kobs at 2500 uM GlcN6P” value was under 1e-05 s⁻¹.

For the variant G41U G51U G62C, the “self-cleavage kobs at 2500 uM GlcN6P” value was under 1e-05 s⁻¹. The same measure, in the same setting: under U47C C58A C68U stands 3.93e-05 ± 1.6e-05 s⁻¹.

Turning to G7U U55A U56A, the “self-cleavage kobs at 2500 uM GlcN6P” value is under 1e-05 s⁻¹.

As to U55A G59A A64G, the “self-cleavage kobs at 2500 uM GlcN6P” value was 2.94e-05 ± 1.4e-05 s⁻¹. With A39G G40U U54A, the “self-cleavage kobs at 2500 uM GlcN6P” value came out at 0.000126 ± 6.2e-05 s⁻¹. Regarding A12U C16G U30C, the “self-cleavage kobs at 2500 uM GlcN6P” value came to 0.000813 ± 0.00031 s⁻¹.

As for A15C U49G C58G, the “self-cleavage kobs at 2500 uM GlcN6P” value is under 1e-05 s⁻¹. The same measure, in the same setting: the same measure for A42G C50G G63U: under 1e-05 s⁻¹; for A6C A12G G37A: under 1e-05 s⁻¹. In the case of U31G G32C G66A, the “self-cleavage kobs at 2500 uM GlcN6P” value was found to be 0.000109 ± 2.1e-05 s⁻¹. Regarding G51A U56C C70G, the “self-cleavage kobs at 2500 uM GlcN6P” value was under 1e-05 s⁻¹.

Turning to A5U A64U, the “self-cleavage kobs at 2500 uM GlcN6P” value turned out to be 8.83e-05 ± 2.8e-05 s⁻¹.

Regarding G29U U47G U54G, the “self-cleavage kobs at 2500 uM GlcN6P” value is 0.000533 ± 0.00012 s⁻¹. Regarding A33U G43U U65C, the “self-cleavage kobs at 2500 uM GlcN6P” value is under 1e-05 s⁻¹. The same measure, in the same setting: under A36C G43C C50G C68A stands under 1e-05 s⁻¹; under A12C G13A A14G U31G, 7.54e-05 ± 3e-05 s⁻¹. Same read-out and setting: under A6G A14U U54A stands 0.000117 ± 2.9e-05 s⁻¹; under G37A A39C G40C G41A U45C G51U C58G, under 1e-05 s⁻¹. On the same count and under the same terms, under C16U C50G U55C stands 7.17e-05 ± 2.1e-05 s⁻¹; under C11G G37U A53C, under 1e-05 s⁻¹; under G38U U45A C71A, under 1e-05 s⁻¹. Consider A12U A33U G40U, for which the “self-cleavage kobs at 2500 uM GlcN6P” value worked out at 3.71e-05 ± 1.4e-05 s⁻¹. On the same count and under the same terms, under C10G G13C A42U A52C stands under 1e-05 s⁻¹. Same read-out and setting: the same measure for A14U G32U G44C G62U C71A: under 1e-05 s⁻¹; for G44A U49C G62U: under 1e-05 s⁻¹.

On to U46G C58U C68G, for which the “self-cleavage kobs at 2500 uM GlcN6P” value worked out at 0.000337 ± 0.00012 s⁻¹. For the variant G9C G13C C34A G62C A64G, the “self-cleavage kobs at 2500 uM GlcN6P” value was under 1e-05 s⁻¹. On the same count and under the same terms, the same measure for A6C G38A G62U: under 1e-05 s⁻¹; for G32A A39U U69A: under 1e-05 s⁻¹.

On to A52G A64G C68U, for which the “self-cleavage kobs at 2500 uM GlcN6P” value came to 6.71e-05 ± 2.2e-05 s⁻¹. On the same count and under the same terms, under A12U A14G G32U stands 0.000861 ± 0.00015 s⁻¹. Same read-out and setting: the same measure for G7A C11U U45C: under 1e-05 s⁻¹. Regarding G35U U56A C71U, the “self-cleavage kobs at 2500 uM GlcN6P” value is under 1e-05 s⁻¹. The same measure, in the same setting: under A12C C16U G40A stands 0.00176 ± 0.00038 s⁻¹; under C34G U47C G66A, under 1e-05 s⁻¹; under C8U G9A U45A U69C, under 1e-05 s⁻¹. Same read-out and setting: the same measure for C34A G41U A42C: under 1e-05 s⁻¹. For the variant G29U U31A U69G C70A, the “self-cleavage kobs at 2500 uM GlcN6P” value was found to be 8.63e-05 ± 2.8e-05 s⁻¹. In the case of U49A G51A G62U, the “self-cleavage kobs at 2500 uM GlcN6P” value is under 1e-05 s⁻¹.

On to A5U C10G A42U U57C C70A, for which the “self-cleavage kobs at 2500 uM GlcN6P” value was under 1e-05 s⁻¹. Consider G29U U47G C50G G63C, for which the “self-cleavage kobs at 2500 uM GlcN6P” value is 0.000136 ± 5.4e-05 s⁻¹. Still for that read-out and setting: the same measure for G13A G35A G44A: under 1e-05 s⁻¹. The same measure, in the same setting: under G32C G37U C70G stands 9.68e-05 ± 4.2e-05 s⁻¹; under G7C A36G G37C U56A G66A, under 1e-05 s⁻¹; under G7U G9A C67A, under 1e-05 s⁻¹. C8U U57G C71G: the “self-cleavage kobs at 2500 uM GlcN6P” value is under 1e-05 s⁻¹.

For G13C G59A G66A C68U, the “self-cleavage kobs at 2500 uM GlcN6P” value is under 1e-05 s⁻¹. For the variant A12U C16U G43C G62C C70U, the “self-cleavage kobs at 2500 uM GlcN6P” value was under 1e-05 s⁻¹. Regarding C10U C11A G41A U55C C58G, the “self-cleavage kobs at 2500 uM GlcN6P” value is under 1e-05 s⁻¹.

For C8A U46G C61A U65C, the “self-cleavage kobs at 2500 uM GlcN6P” value was under 1e-05 s⁻¹.

As for C10G G41A C58G, the “self-cleavage kobs at 2500 uM GlcN6P” value is under 1e-05 s⁻¹.

In the case of U31G A39U A64C, the “self-cleavage kobs at 2500 uM GlcN6P” value came to 6.17e-05 ± 2.3e-05 s⁻¹.

C10U A48C C58U: the “self-cleavage kobs at 2500 uM GlcN6P” value was under 1e-05 s⁻¹. The same measure, in the same setting: under U30G G63C A64U stands under 1e-05 s⁻¹; under A6U C10A C70A, 0.000332 ± 0.00011 s⁻¹.

Consider C10U U31G U49A G62U, for which the “self-cleavage kobs at 2500 uM GlcN6P” value is under 1e-05 s⁻¹. The same measure, in the same setting: the same measure for G9U A15C G32C: under 1e-05 s⁻¹; for A6C U31A A48C: under 1e-05 s⁻¹. On the same count and under the same terms, the same measure for C68U U69C C70U: 3.99e-05 ± 1.4e-05 s⁻¹; for G38C G41U A53C C68G: under 1e-05 s⁻¹. The same measure, in the same setting: under C10G G37C U49G C68G U69G stands 9.24e-05 ± 4.5e-05 s⁻¹; under G32U G41C G59A, under 1e-05 s⁻¹.

Regarding A6C C34G C50G, the “self-cleavage kobs at 2500 uM GlcN6P” value worked out at 4.66e-05 ± 2.1e-05 s⁻¹. Same read-out and setting: under C8U G51U U57C C58A stands under 1e-05 s⁻¹. Still for that read-out and setting: under A12G A36C C70U stands under 1e-05 s⁻¹; under G32U G44C U47G, under 1e-05 s⁻¹; under C50U C70U C71A, 0.000152 ± 4e-05 s⁻¹. On the same count and under the same terms, the same measure for C16U G29C U55A: 0.00365 ± 0.00064 s⁻¹; for A12G G38U C67G C68A: 9.28e-05 ± 2.6e-05 s⁻¹; for G38A G62A C67G: under 1e-05 s⁻¹.

On to A6U G44A U56A, for which the “self-cleavage kobs at 2500 uM GlcN6P” value was under 1e-05 s⁻¹. Turning to G7U C16G A48U, the “self-cleavage kobs at 2500 uM GlcN6P” value is under 1e-05 s⁻¹. On the same count and under the same terms, under C34U G60A C68U stands under 1e-05 s⁻¹; under G41U G44C U55G G59U, under 1e-05 s⁻¹.

Regarding A39G G40C G41C U46G A52G, the “self-cleavage kobs at 2500 uM GlcN6P” value was under 1e-05 s⁻¹.

Consider G32U A48U C67U, for which the “self-cleavage kobs at 2500 uM GlcN6P” value was under 1e-05 s⁻¹.

Regarding G59U G66C, the “self-cleavage kobs at 2500 uM GlcN6P” value is under 1e-05 s⁻¹.

Another series covers variants of B1. Briefly: self-cleavage kobs at 10000 uM GlcN6P; higher = faster cleavage; RNA array. The conditions noted are these: with glucosamine-6-phosphate. Summed up: as §1
Take A12U A14G G32U: the “self-cleavage kobs at 10000 uM GlcN6P” value was 0.00275 ± 0.00043 s⁻¹. U31G A39U A64C: the “self-cleavage kobs at 10000 uM GlcN6P” value was 4.91e-05 ± 1.3e-05 s⁻¹. Regarding U30G G63C A64U, the “self-cleavage kobs at 10000 uM GlcN6P” value was under 1e-05 s⁻¹. For A6C U31A A48C, the “self-cleavage kobs at 10000 uM GlcN6P” value is under 1e-05 s⁻¹.
